Test results as given in PMC12576823.
One block for each binder: values may come before it.

Biological target: biotinylated cLDLR-TEV-Fc antigen (cleaved form of the low-density lipoprotein receptor) (UniProt P01130)
Assay: BLI; Octet RED384, room temperature; 20 nM biotinylated antigen-Fc immobilised on SA biosensor; monomeric Fab as analyte in PBS, 0.05% Tween-20, 0.2% BSA; 2:1 heterogeneous ligand model, global fit

UniProt P01130, sequence (P01130 22-788): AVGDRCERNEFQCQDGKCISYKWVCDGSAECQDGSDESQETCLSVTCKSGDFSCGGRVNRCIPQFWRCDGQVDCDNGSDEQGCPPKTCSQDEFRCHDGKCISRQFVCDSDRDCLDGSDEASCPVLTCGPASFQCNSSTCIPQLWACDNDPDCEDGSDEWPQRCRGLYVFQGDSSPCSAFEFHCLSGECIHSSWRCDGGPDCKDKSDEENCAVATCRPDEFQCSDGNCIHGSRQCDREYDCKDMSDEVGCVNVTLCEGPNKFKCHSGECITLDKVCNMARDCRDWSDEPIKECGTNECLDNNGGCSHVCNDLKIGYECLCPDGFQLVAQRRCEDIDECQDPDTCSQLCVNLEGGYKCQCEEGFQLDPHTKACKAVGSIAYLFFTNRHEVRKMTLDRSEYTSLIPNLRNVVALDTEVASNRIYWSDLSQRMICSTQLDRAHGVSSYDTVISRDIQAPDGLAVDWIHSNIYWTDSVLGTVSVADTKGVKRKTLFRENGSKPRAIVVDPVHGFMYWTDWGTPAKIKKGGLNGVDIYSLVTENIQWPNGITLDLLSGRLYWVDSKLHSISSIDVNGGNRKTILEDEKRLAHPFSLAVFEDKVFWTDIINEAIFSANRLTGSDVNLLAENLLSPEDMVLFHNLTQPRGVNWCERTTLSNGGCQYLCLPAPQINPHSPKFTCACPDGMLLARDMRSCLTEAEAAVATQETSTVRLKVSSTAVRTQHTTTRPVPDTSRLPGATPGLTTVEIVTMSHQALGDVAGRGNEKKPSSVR

Kd: 5.8 nM
B1: 142F1 Fab (anti-LDLR) (Fab, V domains shown)
VH: EVQLVESGGGLVQPGGSLRLSCAASGFNVYSSSIHWVRQAPGKGLEWVASISSYYGSTYYADSVKGRFTISADTSKNTAYLQMNSLRAEDTAVYYCARWYGYGYYHPYYFGRSYGFDYWGQGTLVTVSS
VL: DIQMTQSPSSLSASVGDRVTITCRASQSVSSAVAWYQQKPGKAPKLLIYSASSLYSGVPSRFSGSRSGTDFTLTISSLQPEDFATYYCQQEWQSLFTFGQGTKVEIK

Kd: 16 nM
B2: 142F6 Fab (anti-LDLR) (Fab, V domains shown)
VH: EVQLVESGGGLVQPGGSLRLSCAASGFNFSSSSIHWVRQAPGKGLEWVASIYSSSGYTYYADSVKGRFTISADTSKNTAYLQMNSLRAEDTAVYYCARKWYYGAMDYWGQGTLVTVSS
VL: DIQMTQSPSSLSASVGDRVTITCRASQSVSSAVAWYQQKPGKAPKLLIYSASSLYSGVPSRFSGSRSGTDFTLTISSLQPEDFATYYCQQSSTIWTPLTFGQGTKVEIK
